Test results: US20260263646A1 (ENLAZA THERAPEUTICS, published 2026)

How the values were obtained:
[1] = target: T1, PSMA (commercial, Sino Bio cat #15877-H07H) (UniProt Q04609 44-750); experiment: SDS-PAGE, overnight 37C, ~7:1 sdAb:PSMA
T1 construct: also called receptor

PSMA on PC3pip cells = PSMA on PC3pip cells (UniProt Q04609 1-750, limits assumed); experiment: cell-based or functional assay
[2] = target: T1, PSMA (commercial, Sino Bio cat …); experiment: SDS-PAGE, 37C, ~8:1 sdAb:PSMA
PSMA on LNCaP cells = target: T2, PSMA on LNCaP cells (human, UniProt Q04609 1-750); experiment: flow cytometry on LNCaP cells
T2 construct: whole, on cells; also called LNCaP (PSMA+)
T2 sequence (Q04609 whole entry): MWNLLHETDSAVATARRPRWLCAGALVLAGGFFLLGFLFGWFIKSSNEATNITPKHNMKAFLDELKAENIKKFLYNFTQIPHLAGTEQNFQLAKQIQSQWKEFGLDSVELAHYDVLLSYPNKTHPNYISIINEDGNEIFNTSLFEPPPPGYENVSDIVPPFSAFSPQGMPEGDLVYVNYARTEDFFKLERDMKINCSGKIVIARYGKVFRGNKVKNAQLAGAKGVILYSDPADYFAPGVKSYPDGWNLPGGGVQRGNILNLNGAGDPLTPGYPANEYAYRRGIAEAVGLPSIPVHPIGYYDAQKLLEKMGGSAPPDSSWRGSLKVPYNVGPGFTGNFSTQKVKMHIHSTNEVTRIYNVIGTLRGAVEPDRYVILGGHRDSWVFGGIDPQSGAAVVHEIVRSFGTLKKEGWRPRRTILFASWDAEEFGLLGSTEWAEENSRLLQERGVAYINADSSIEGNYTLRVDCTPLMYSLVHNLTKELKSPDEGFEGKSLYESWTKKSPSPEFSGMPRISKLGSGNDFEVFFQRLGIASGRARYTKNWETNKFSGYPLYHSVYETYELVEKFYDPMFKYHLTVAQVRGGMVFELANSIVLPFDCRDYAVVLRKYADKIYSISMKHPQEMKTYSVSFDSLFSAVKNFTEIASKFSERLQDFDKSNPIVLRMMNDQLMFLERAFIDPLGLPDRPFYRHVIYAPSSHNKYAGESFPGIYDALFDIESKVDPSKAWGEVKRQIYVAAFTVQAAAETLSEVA

[3] = target: T1, PSMA (commercial, Sino Bio cat …); experiment: SDS-PAGE, lysate + PSMA, 3 h 37C

T1 sequence (Q04609 44-750 limits assumed): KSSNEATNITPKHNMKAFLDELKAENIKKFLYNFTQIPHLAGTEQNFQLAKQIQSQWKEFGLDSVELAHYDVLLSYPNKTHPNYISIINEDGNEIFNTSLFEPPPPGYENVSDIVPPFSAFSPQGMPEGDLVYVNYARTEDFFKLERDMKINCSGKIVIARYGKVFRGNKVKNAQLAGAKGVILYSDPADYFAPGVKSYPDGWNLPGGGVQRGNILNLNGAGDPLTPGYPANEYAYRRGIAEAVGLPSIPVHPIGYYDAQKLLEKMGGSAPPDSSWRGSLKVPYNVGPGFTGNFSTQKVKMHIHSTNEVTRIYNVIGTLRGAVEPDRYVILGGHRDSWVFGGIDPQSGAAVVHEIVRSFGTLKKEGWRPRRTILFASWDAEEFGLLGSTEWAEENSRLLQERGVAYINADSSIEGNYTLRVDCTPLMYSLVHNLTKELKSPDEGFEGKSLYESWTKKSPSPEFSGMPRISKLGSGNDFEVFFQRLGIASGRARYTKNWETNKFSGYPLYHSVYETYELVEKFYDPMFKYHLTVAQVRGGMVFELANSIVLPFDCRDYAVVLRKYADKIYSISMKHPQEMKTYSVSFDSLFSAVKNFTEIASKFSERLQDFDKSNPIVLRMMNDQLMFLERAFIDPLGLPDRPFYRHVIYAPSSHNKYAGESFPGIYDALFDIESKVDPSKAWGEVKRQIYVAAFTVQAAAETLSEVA
Sequence of PSMA on PC3pip cells (Q04609 whole entry): as the sequence (Q04609 whole entry) above

B1: C1-26FSY (VHH)
VHH: QVQLQESGGGSVQAGGSLRLSCTAPXYTDSNYYMSWFRQAPGKEREWVAGVNTGRGSTSYADSVKGRFTISQDNAKNTMFLQMNSLKPEDTAIYYCAVAACHFCDSLPKTQDEYILWGQGTQVTVSS
modifications: not fully specified; FSY at 26
notes: plus C-terminal His6
[1]
  crosslinking efficiency: < 50%

B2: C1-103FSY (VHH)
VHH: QVQLQESGGGSVQAGGSLRLSCTAPGYTDSNYYMSWFRQAPGKEREWVAGVNTGRGSTSYADSVKGRFTISQDNAKNTMFLQMNSLKPEDTAIYYCAVAACHXCDSLPKTQDEYILWGQGTQVTVSS
modifications: not fully specified; FSY at 103
notes: plus C-terminal His6
[1]
  crosslinking efficiency: < 50%

B3: C1-115FSY (VHH)
VHH: QVQLQESGGGSVQAGGSLRLSCTAPGYTDSNYYMSWFRQAPGKEREWVAGVNTGRGSTSYADSVKGRFTISQDNAKNTMFLQMNSLKPEDTAIYYCAVAACHFCDSLPKTQDEYXLWGQGTQVTVSS
modifications: not fully specified; FSY at 115
notes: plus C-terminal His6
[1]
  crosslinking efficiency: < 50%

B4: C1-29FSY (VHH)
VHH: QVQLQESGGGSVQAGGSLRLSCTAPGYTXSNYYMSWFRQAPGKEREWVAGVNTGRGSTSYADSVKGRFTISQDNAKNTMFLQMNSLKPEDTAIYYCAVAACHFCDSLPKTQDEYILWGQGTQVTVSS
modifications: not fully specified; FSY at 29
notes: plus C-terminal His6
[1]
  crosslinking efficiency: > 50%

B5: C1-108FSY (VHH)
VHH: QVQLQESGGGSVQAGGSLRLSCTAPGYTDSNYYMSWFRQAPGKEREWVAGVNTGRGSTSYADSVKGRFTISQDNAKNTMFLQMNSLKPEDTAIYYCAVAACHFCDSLXKTQDEYILWGQGTQVTVSS
modifications: not fully specified; FSY at 108
notes: plus C-terminal His6
[1]
  crosslinking efficiency: < 50%

B6: C1-114FSY (VHH)
VHH: QVQLQESGGGSVQAGGSLRLSCTAPGYTDSNYYMSWFRQAPGKEREWVAGVNTGRGSTSYADSVKGRFTISQDNAKNTMFLQMNSLKPEDTAIYYCAVAACHFCDSLPKTQDEXILWGQGTQVTVSS
modifications: not fully specified; FSY at 114
notes: plus C-terminal His6
[1]
  crosslinking efficiency: < 50%

B7: C1-111FSY (VHH)
VHH: QVQLQESGGGSVQAGGSLRLSCTAPGYTDSNYYMSWFRQAPGKEREWVAGVNTGRGSTSYADSVKGRFTISQDNAKNTMFLQMNSLKPEDTAIYYCAVAACHFCDSLPKTXDEYILWGQGTQVTVSS
modifications: not fully specified; FSY at 111
notes: plus C-terminal His6
[1]
  crosslinking efficiency: < 50%

B8: C1-105FSY (VHH)
VHH: QVQLQESGGGSVQAGGSLRLSCTAPGYTDSNYYMSWFRQAPGKEREWVAGVNTGRGSTSYADSVKGRFTISQDNAKNTMFLQMNSLKPEDTAIYYCAVAACHFCXSLPKTQDEYILWGQGTQVTVSS
modifications: not fully specified; FSY at 105
notes: plus C-terminal His6
[1]
  crosslinking efficiency: < 50%

B9: C1-30FSY (VHH)
VHH: QVQLQESGGGSVQAGGSLRLSCTAPGYTDXNYYMSWFRQAPGKEREWVAGVNTGRGSTSYADSVKGRFTISQDNAKNTMFLQMNSLKPEDTAIYYCAVAACHFCDSLPKTQDEYILWGQGTQVTVSS
modifications: not fully specified; FSY at 30
notes: plus C-terminal His6
[1]
  crosslinking efficiency: > 50%

B10: C1-99FSY (VHH)
VHH: QVQLQESGGGSVQAGGSLRLSCTAPGYTDSNYYMSWFRQAPGKEREWVAGVNTGRGSTSYADSVKGRFTISQDNAKNTMFLQMNSLKPEDTAIYYCAVXACHFCDSLPKTQDEYILWGQGTQVTVSS
modifications: not fully specified; FSY at 99
notes: plus C-terminal His6
[1]
  crosslinking efficiency: < 50%

B11: C1-110FSY (VHH)
VHH: QVQLQESGGGSVQAGGSLRLSCTAPGYTDSNYYMSWFRQAPGKEREWVAGVNTGRGSTSYADSVKGRFTISQDNAKNTMFLQMNSLKPEDTAIYYCAVAACHFCDSLPKXQDEYILWGQGTQVTVSS
modifications: not fully specified; FSY at 110
notes: plus C-terminal His6
[1]
  crosslinking efficiency: < 50%

B12: C26-54TYR (VHH)
VHH: EVQLVESGGGLVQPGGSLTLSCAASRFMISEYSMHWVRQAPGKGLEWVSTINPYGTTDYAESVKGRFTISRDNAKNTLYLQMNSLKPEDTAVYYCDGYGYRGQGTQVTVSS
modifications: MC-PEG8-VC-PABC-MMAE on the C-terminal Cys (DAR 1)
PSMA on PC3pip cells
  IC50 PC3pip (M), cell viability by CellTiter-Glo after 4 days: 3.36e-09 M

B13: C2-56FSY (VHH)
VHH: EVQLVESGGGLVQPGGSLTLSCAASRFMISEYSMHWVRQAPGKGLEWVSTINPAGXTDYAESVKGRFTISRDNAKNTLYLQMNSLKPEDTAVYYCDGYGYRGQGTQVTVSS
modifications: not fully specified; FSY at 56
notes: plus C-terminal His6
[2]
  crosslinking efficiency: < 50%

B14: C2-100FSY (VHH)
VHH: EVQLVESGGGLVQPGGSLTLSCAASRFMISEYSMHWVRQAPGKGLEWVSTINPAGTTDYAESVKGRFTISRDNAKNTLYLQMNSLKPEDTAVYYCDGYGXRGQGTQVTVSS
modifications: not fully specified; FSY at 100
notes: plus C-terminal His6
[2]
  crosslinking efficiency: < 50%

B15: C2-58FSY (VHH)
VHH: EVQLVESGGGLVQPGGSLTLSCAASRFMISEYSMHWVRQAPGKGLEWVSTINPAGTTXYAESVKGRFTISRDNAKNTLYLQMNSLKPEDTAVYYCDGYGYRGQGTQVTVSS
modifications: not fully specified; FSY at 58
notes: plus C-terminal His6
[2]
  crosslinking efficiency: > 50%

B16: C2-53FSY (VHH)
VHH: EVQLVESGGGLVQPGGSLTLSCAASRFMISEYSMHWVRQAPGKGLEWVSTINXAGTTDYAESVKGRFTISRDNAKNTLYLQMNSLKPEDTAVYYCDGYGYRGQGTQVTVSS
modifications: not fully specified; FSY at 53
notes: plus C-terminal His6
[2]
  crosslinking efficiency: > 50%

B17: C2-50FSY (VHH)
VHH: EVQLVESGGGLVQPGGSLTLSCAASRFMISEYSMHWVRQAPGKGLEWVSXINPAGTTDYAESVKGRFTISRDNAKNTLYLQMNSLKPEDTAVYYCDGYGYRGQGTQVTVSS
modifications: not fully specified; FSY at 50
notes: plus C-terminal His6
[2]
  crosslinking efficiency: > 50%

B18: C34-TYR (bispecific antibody)
chain: EVQLVESGGGLVQPGGSLTLSCAASRFMISEYSMHWVRQAPGKGLEWVSTINPYGTTDYAESVKGRFTISRDNAKNTLYLQMNSLKPEDTAVYYCDGYGYRGQGTQVTVSSGGGGSGGGGSGGGGSQVQLQESGGGSVEAGGSLRLSCARSGWPYSTYSMNWFRQAPGKEREAVAGISSTMSGIIFAESKAGQFTISQDNAKNTVYLQMNNLKPEDTAIYYCAARRYFSLSSSSDDFDYWGQGTQVTVSSAAAYPYDVPDYGSLPETGGSPSTPPTPSPSTPP
notes: Biparatopic tandem of two anti-PSMA VHH
PSMA on LNCaP cells
  EC50: 2.3 nM

B19: C35-TYR (bispecific antibody)
chain: QVQLQESGGGSVEAGGSLRLSCARSGWPYSTYSMNWFRQAPGKEREAVAGISSTMSGIIFAESKAGQFTISQDNAKNTVYLQMNNLKPEDTAIYYCAARRYFSLSSSSDDFDYWGQGTQVTVSSGGGGSGGGGSGGGGSQVQLQESGGGSVEAGGSLRLSCARSGWPYSTYSMNWFRQAPGKEREAVAGISSTMSGIIFAESKAGQFTISQDNAKNTVYLQMNNLKPEDTAIYYCAARRYFSLSSSSDDFDYWGQGTQVTVSSAAAYPYDVPDYGSLPETGGSPSTPPTPSPSTPP
notes: Tandem of two copies of the same VHH
PSMA on LNCaP cells
  EC50: 12.3 nM

B20: C28-101TYR (VHH)
VHH: QVQLQESGGGSVEAGGSLRLSCARSGWPYSTYSMNWFRQAPGKEREAVAGISSTMSGIIFAESKAGQFTISQDNAKNTVYLQMNNLKPEDTAIYYCAARRYFSLSSSSDDFDYWGQGTQVTVSS
modifications: MC-PEG8-VC-PABC-MMAE on the C-terminal Cys
PSMA on PC3pip cells
  IC50 PC3pip (M), cell viability by CellTiter-Glo after 4 days: 8.47e-08 M

B21: C3-107FSY (VHH)
VHH: QVQLQESGGGSVEAGGSLRLSCARSGWPYSTYSMNWFRQAPGKEREAVAGISSTMSGIIFAESKAGQFTISQDNAKNTVYLQMNNLKPEDTAIYYCAARRDYSLSSXSDDFDYWGQGTQVTVSS
modifications: not fully specified; FSY at 107
notes: plus C-terminal His6; tested as cell lysate
[3]
  crosslinking efficiency: < 50%

B22: C3-58FSY (VHH)
VHH: QVQLQESGGGSVEAGGSLRLSCARSGWPYSTYSMNWFRQAPGKEREAVAGISSTMSGXIFAESKAGQFTISQDNAKNTVYLQMNNLKPEDTAIYYCAARRDYSLSSSSDDFDYWGQGTQVTVSS
modifications: not fully specified; FSY at 58
notes: as for B21
[3]
  crosslinking efficiency: > 50%

B23: C3-62FSY (VHH)
VHH: QVQLQESGGGSVEAGGSLRLSCARSGWPYSTYSMNWFRQAPGKEREAVAGISSTMSGIIFAXSKAGQFTISQDNAKNTVYLQMNNLKPEDTAIYYCAARRDYSLSSSSDDFDYWGQGTQVTVSS
modifications: not fully specified; FSY at 62
notes: as for B21
[3]
  crosslinking efficiency: > 50%

B24: C3-101FSY (VHH)
VHH: QVQLQESGGGSVEAGGSLRLSCARSGWPYSTYSMNWFRQAPGKEREAVAGISSTMSGIIFAESKAGQFTISQDNAKNTVYLQMNNLKPEDTAIYYCAARRXYSLSSSSDDFDYWGQGTQVTVSS
modifications: not fully specified; FSY at 101
notes: plus C-terminal His6
[3]
  crosslinking efficiency: < 50%

B25: C3-103FSY (VHH)
VHH: QVQLQESGGGSVEAGGSLRLSCARSGWPYSTYSMNWFRQAPGKEREAVAGISSTMSGIIFAESKAGQFTISQDNAKNTVYLQMNNLKPEDTAIYYCAARRDYXLSSSSDDFDYWGQGTQVTVSS
modifications: not fully specified; FSY at 103
notes: as for B21
[3]
  crosslinking efficiency: < 50%

B26: C24-101TYR (VHH)
VHH: QVQLQESGGGSVEAGGSLRLSCARSGWPYSTYSMNWFRQAPGKEREAVAGISSTMSGIIFAESKAGQFTISQDNAKNTVYLQMNNLKPEDTAIYYCAARRYFSLSSSSDDFDYWGQGTQVTVSS
PSMA on LNCaP cells
  EC50: > 500 nM
